Patent publication WO2018134681A1 (dated 2018)

What was measured:
human TGF-β1 [1] = molecular target: T1, human TGF-β1 (human, UniProt P01137 279-390); assay: cell-based or functional assay
human TGF-β1 [2] = molecular target: T1, human TGF-β1; assay: SPR, Biacore T200, TGF-β homodimer immobilized on CM5 chip, Ab1 injected, 1:1 model
human TGF-β2 = molecular target: T2, human TGF-β2 (human, UniProt P61812 21-414); assay: as above
T2 chain: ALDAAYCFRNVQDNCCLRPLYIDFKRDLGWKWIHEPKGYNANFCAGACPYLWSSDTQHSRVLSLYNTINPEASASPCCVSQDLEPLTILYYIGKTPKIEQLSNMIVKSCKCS

[3] = molecular target: T3, murine TGF-β1 (identical in amino acid sequence to rat TGF-β1) (mouse, UniProt P04202 279-390); assay: as above
T3 construct: mature; also called Murine and Rat TGF-βΙ; murine/rat TGF-β1
T3 sequence (P04202 279-390 limits assumed): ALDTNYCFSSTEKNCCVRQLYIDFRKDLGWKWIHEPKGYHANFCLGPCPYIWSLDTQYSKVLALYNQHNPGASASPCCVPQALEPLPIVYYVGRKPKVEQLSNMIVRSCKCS

T1 sequence (P01137 279-390 limits assumed): as the sequence (P04202 279-390 limits assumed) above, with S75A counted along it

- NFAT-driven luciferase activity, fold change against isotype control Ab (human TGF-β1 [1]): 1.45 fold change
- NFAT-driven luciferase activity, fold change against no Ab control (human TGF-β1 [1]): 1.45 fold change
- Kd (human TGF-β1 [2]): 1.48 nM
- Kd (human TGF-β2): 3 nM
- Kd [3]: 2.8 nM
B1: Ab1 (antibody, human IgG4 S228P, kappa)
heavy: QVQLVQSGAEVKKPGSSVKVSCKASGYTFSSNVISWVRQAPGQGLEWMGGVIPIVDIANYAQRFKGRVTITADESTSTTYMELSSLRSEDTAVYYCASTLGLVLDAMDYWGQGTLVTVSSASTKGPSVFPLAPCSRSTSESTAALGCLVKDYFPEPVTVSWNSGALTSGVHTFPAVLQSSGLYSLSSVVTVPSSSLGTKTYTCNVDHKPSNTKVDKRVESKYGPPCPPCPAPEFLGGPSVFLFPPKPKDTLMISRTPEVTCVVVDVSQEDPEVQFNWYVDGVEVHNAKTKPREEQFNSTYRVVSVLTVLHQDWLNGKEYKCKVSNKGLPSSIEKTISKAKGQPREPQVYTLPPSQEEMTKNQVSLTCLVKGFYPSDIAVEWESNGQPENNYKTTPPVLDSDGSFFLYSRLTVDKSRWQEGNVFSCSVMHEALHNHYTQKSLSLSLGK
light: ETVLTQSPGTLSLSPGERATLSCRASQSLGSSYLAWYQQKPGQAPRLLIYGASSRAPGIPDRFSGSGSGTDFTLTISRLEPEDFAVYYCQQYADSPITFGQGTRLEIKRTVAAPSVFIFPPSDEQLKSGTASVVCLLNNFYPREAKVQWKVDNALQSGNSQESVTEQDSKDSTYSLSSTLTLSKADYEKHKVYACEVTHQGLSSPVTKSFNRGEC
notes: also called anti-TGF-β antibody Ab1; pan-TGF-β antibody
